Experimental data taken from PMC8809517, “Cofactor-independent RNA editing by a synthetic S-type PPR protein”.

Assays:
Assay in all cases: high-throughput RNA pulldown from lysate on Ni-NTA beads; HRP: 50 mM Tris pH 8, 150 mM NaCl, 1 mM beta-mercaptoethanol, 50 ug/ml BSA, 3 ug/ml yeast RNA, 0.5% heparin; ITC and FP: Tris pH 8, 200 mM KCl, 5% glycerol; MST: 50 mM Tris pH 8, 200 mM NaCl, 1 mM DTT, BSA, heparin, 0.05% Tween 20
Conditions in all cases: tags: N-terminal His-eGFP
[1] = molecular target: T1, GFP-9S library array, motif 4 ND N98C;D124F (synthetic construct, N98C;D124F)
T1 chain: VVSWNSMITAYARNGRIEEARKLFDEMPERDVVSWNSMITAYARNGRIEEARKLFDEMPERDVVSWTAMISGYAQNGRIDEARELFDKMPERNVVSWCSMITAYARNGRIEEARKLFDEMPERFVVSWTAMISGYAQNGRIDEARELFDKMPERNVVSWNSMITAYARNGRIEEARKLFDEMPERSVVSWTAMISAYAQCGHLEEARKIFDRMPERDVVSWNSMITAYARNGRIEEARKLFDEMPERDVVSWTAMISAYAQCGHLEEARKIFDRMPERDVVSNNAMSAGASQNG

[2] = molecular target: T2, GFP-9S library array, motif 4 ND N98Y;D124G (synthetic construct, N98Y;D124G)
T2 chain: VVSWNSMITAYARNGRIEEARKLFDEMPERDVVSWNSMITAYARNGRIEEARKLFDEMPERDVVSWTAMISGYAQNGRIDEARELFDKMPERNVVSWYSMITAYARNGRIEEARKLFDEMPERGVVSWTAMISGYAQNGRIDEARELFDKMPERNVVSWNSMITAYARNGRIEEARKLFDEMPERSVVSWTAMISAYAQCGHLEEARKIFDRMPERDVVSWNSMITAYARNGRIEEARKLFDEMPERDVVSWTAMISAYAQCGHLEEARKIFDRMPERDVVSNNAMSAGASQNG

[3] = molecular target: T3, GFP-9S library array, motif 4 ND N98W;D124P (synthetic construct, N98W;D124P)
T3 chain: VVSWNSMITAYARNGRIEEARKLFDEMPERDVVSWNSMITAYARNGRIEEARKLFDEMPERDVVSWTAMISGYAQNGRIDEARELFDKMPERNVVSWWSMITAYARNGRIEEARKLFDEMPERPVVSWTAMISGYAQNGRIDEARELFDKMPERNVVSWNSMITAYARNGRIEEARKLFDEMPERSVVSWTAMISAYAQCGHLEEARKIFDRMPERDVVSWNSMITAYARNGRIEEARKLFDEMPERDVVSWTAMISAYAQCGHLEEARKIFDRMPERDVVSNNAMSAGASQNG

[4] = molecular target: T4, GFP-9S library array, motif 4 ND N98A;D124P (synthetic construct, N98A;D124P)
T4 chain: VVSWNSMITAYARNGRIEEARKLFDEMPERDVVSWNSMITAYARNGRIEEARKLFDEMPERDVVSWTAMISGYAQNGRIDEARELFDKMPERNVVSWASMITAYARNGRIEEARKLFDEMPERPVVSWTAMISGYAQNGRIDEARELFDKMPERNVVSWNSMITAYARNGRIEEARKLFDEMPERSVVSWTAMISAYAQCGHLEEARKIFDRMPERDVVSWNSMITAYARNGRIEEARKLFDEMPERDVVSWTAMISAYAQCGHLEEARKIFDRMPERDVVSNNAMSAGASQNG

[5] = molecular target: T5, GFP-9S library array, motif 4 ND N98M (synthetic construct, N98M)
T5 chain: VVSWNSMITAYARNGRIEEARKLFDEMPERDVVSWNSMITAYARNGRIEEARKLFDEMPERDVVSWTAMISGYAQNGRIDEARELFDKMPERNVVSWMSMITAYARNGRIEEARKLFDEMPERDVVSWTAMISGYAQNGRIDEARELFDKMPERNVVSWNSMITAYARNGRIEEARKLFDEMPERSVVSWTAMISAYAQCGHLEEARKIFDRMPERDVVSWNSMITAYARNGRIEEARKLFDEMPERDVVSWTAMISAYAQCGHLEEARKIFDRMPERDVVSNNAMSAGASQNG

AUUAGACGUGA (ssRNA) [Cy5-rpoA-G]
Kd ([1]; label: 5' Cy5): 100 nM
Kd ([2]; label: 5' Cy5): 177 nM
Kd ([3]; label: 5' Cy5): 215 nM
Kd ([4]; label: 5' Cy5): 115 nM
Kd ([5]; label: 5' Cy5): 43.1 nM

AUUACACGUGA (ssRNA) [Cy5-rpoA]
Kd ([1]; label: 5' Cy5): 126 nM
Kd ([2]; label: 5' Cy5): 183 nM
Kd ([3]; label: 5' Cy5): 230 nM
Kd ([4]; label: 5' Cy5): 138 nM
Kd ([5]; label: 5' Cy5): 143 nM

AUUAAACGUGA (ssRNA) [IR-rpoA-A]
Kd ([1]; label: 5' IRDye 800CW): 203 nM
Kd ([2]; label: 5' IRDye 800CW): 567 nM
Kd ([3]; label: 5' IRDye 800CW): 579 nM
Kd ([4]; label: 5' IRDye 800CW): 218 nM
Kd ([5]; label: 5' IRDye 800CW): 296 nM

AUUAUACGUGA (ssRNA) [IR-rpoA-U]
Kd ([1]; label: 5' IRDye 800CW): 317 nM
Kd ([2]; label: 5' IRDye 800CW): 211 nM
Kd ([3]; label: 5' IRDye 800CW): 526 nM
Kd ([4]; label: 5' IRDye 800CW): 320 nM
Kd ([5]; label: 5' IRDye 800CW): 129 nM
